# Where a chain is given by its changes, count along the chain named. Names and notes keep the numbering of the source.
# B1: best design of C143, IgG (antibody, V domains shown)
# VH: EVQLVESGGGLVQPGGSLRLSCAASGFSVSTKYMTWVRQAPGKGLEWVSVLYSGGSDYYADSVKGRFTISRDNSKNALYLQMNSLRVEDTGVYYCARDSSEVRDHPGHPGRSVGAFDIWGQGTMVTVSS
# VL: QSALTQPASVSGSPGQSITISCTGTSNDVGSYNLVSWYQQYPGKAPKLLIFEVTKRSSGISNRFSGSKSGNTASLTISGLQGEDEADYYCCSYAGASTFVFGGGTKLTVL
# B2: REGN10987 VH R16G-V108D (antibody, V domains shown)
# VH: QVQLVESGGGVVQPGGSLRLSCAASGFTFSNYAMYWVRQAPGKGLEWVAVISYDGSNKYYADSVKGRFTISRDNSKNTLYLQMNSLRTEDTAVYYCASGSDYGDYLLDYWGQGTLVTVSS
# VL: QSALTQPASVSGSPGQSITISCTGTSSDVGGYNYVSWYQQHPGKAPKLMIYDVSKRPSGVSNRFSGSKSGNTASLTISGLQSEDEADYYCNSLTSISTWVFGGGTKLTVL
# B3: another design of REGN10987 (5.1-fold improvement for the Omicron BA.1 RBD), Fab (Fab, V domains shown)
# VH: B2 VH with D108V
# VL: B2 VL with N91C
# Key:
# [1] = target: SARS-CoV-2 Omicron BA.1 receptor-binding domain (RBD) (SARS-CoV-2 Omicron BA.1, strain, biotin on the AviTag (expressed in the presence of BirA)); experiment: BLI; conditions: both partners purified
# [2] = target: SARS-CoV-2 Beta-variant Spike with six stabilizing proline substitutions (S-6P) (SARS-CoV-2 Beta variant (B.1.351), strain)
binder,measurement,setting,value
B1,fold improvement in apparent Kd over wild-type,[1],3.8 fold
B2,binding result,[2],binds
B3,fold improvement in Fab Kd over wild-type,[1],5.1 fold
